Columns and labels:
[1] = molecular target: Ole e 1 (olive) (UniProt P19963); test: barcoded antigen sequencing of single IgE PCs with trapped IgE [cont.]
[2] = molecular target: Ole e 1 (olive) (UniProt P19963); test: barcoded antigen sequencing of single IgE PCs with trapped IgE
[3] = molecular target: Der f 1 (house dust mite) (UniProt P16311); test: barcoded antigen sequencing of single IgE PCs with trapped IgE [cont.]
[4] = molecular target: Der p 1 (house dust mite) (UniProt P08176); test: as above
[5] = molecular target: Der p 2 (house dust mite) (UniProt P49278); test: as above
[6] = molecular target: Der f 1 (house dust mite) (UniProt P16311); test: barcoded antigen sequencing of single IgE PCs with trapped IgE
[7] = molecular target: Der p 1 (house dust mite) (UniProt P08176); test: as above
[8] = molecular target: Der p 2 (house dust mite) (UniProt P49278); test: as above
[9] = molecular target: Der f 1 (house dust mite) (UniProt P16311); test: antigen specificity score against Ole e 1 from barcode counts of single IgE PCs [cont.]
[10] = molecular target: Der p 1 (house dust mite) (UniProt P08176); test: as above
[11] = molecular target: Der p 2 (house dust mite) (UniProt P49278); test: as above
[12] = molecular target: Der f 1 (house dust mite) (UniProt P16311); test: barcode rank score against control Ole e 1
[13] = molecular target: Der p 1 (house dust mite) (UniProt P08176); test: barcode rank score against control Ole e 1
[14] = molecular target: Der f 1 (house dust mite) (UniProt P16311); test: barcoded-antigen count on source cell
[15] = molecular target: Der p 1 (house dust mite) (UniProt P08176); test: barcoded-antigen count on source cell
[16] = molecular target: Der f 1 (house dust mite) (UniProt P16311); test: centered log-ratio of barcode count
[17] = molecular target: Der p 1 (house dust mite) (UniProt P08176); test: centered log-ratio of barcode count

Der f 1 (house dust mite), sequence (P16311 99-321 limits assumed): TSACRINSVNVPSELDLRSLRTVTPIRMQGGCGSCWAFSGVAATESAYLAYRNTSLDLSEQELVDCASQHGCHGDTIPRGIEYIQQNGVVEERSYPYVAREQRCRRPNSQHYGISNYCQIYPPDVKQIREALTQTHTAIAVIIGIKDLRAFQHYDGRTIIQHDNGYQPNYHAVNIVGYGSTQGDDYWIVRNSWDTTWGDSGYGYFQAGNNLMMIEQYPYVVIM
Ole e 1 (olive), sequence (P19963 whole entry): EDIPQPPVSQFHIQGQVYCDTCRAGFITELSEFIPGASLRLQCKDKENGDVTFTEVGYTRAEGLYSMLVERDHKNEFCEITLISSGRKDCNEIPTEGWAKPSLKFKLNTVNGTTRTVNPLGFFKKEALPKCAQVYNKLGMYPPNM
Der p 2 (house dust mite), sequence (P49278 18-146 limits assumed): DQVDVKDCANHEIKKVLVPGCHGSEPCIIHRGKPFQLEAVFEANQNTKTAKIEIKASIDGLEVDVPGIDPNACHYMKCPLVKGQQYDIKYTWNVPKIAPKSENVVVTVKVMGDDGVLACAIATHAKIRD
Der p 1 (house dust mite), sequence (P08176 99-320 limits assumed): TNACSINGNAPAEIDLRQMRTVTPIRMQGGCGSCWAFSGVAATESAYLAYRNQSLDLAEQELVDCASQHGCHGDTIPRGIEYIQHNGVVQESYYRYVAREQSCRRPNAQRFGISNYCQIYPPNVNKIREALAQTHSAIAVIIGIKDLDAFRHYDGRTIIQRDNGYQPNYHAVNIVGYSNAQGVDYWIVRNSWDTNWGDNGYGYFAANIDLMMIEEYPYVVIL

Binder | Normalized Barcode Count [1] | Raw Antigen Barcode Count [2] | Normalized Barcode Count [3] | Normalized Barcode Count [4] | Normalized Barcode Count [5] | Raw Antigen Barcode Count [6] | Raw Antigen Barcode Count [7] | Raw Antigen Barcode Count [8] | Antigen Score [9] | Antigen Score [10] | Antigen Score [11] | further results
Candidate ID 9 (antibody, V domains shown) VH: EVQLQQSGPELVKPGASVKISCKASGYTFTDYYMNWVKQSHGKSLEWIGDINPNNGGTSYNQKFKGKATLTVDKSSSTAYMELRSLTSEDSAVYYCAYGPPRGPPWFAYWGQGTLVTVSA VL: DIVLTQSPASLAVSLGQRATISCRASKSVSTSGYSYMHWYQQKPGQPPKLLIYLASNLESGVPARFSGSGSGTDFTLNIHPVEEEDAATYYCQHSRELPWTFGGGTKLEIK | 0.029 | 1 | 0.82 | 0.981 | 1.62 | 15 | 16 | 46 | 0.765 | 0.775 | 0.858 | –
IgE mAb 13_2 (antibody, V domains shown) VH: EVQLQQSGPELVKPGASVKISCKASGYTFTDYYMNWVKQSHGKSLEWIGDINPNNGGTSYNQKFKGKATLTVDKSSSTAYMELRSLTSEDSAVYYCAYGPPRGPPWFAYWGQGTLVTVSA VL: DIVLTQSPASLAVSLGQRATISCRASKSVSTSGYSYMHWYQQKPGQPPKLLIYLASNLESGVPARFSGSGSGTDFTLNIHPVEEEDAATYYCQHSRELPWTFGGGTKLEIK | – | – | – | – | – | – | – | – | – | – | – | Derf1 ab rank [12]: 0.765; Derp1 ab rank [13]: 0.775; Derf1 ab raw [14]: 15 counts; Derp1 ab raw [15]: 16 counts; Derf1 ab clr [16]: 0.82; Derp1 ab clr [17]: 0.981
Candidate ID 7 (antibody, V domains shown) VH: QVLLKESGPGLVAPSQSLSITCTVSGFSLTSYGVSWVRQPPGKGLEWLGVIWGDGNTDYHSALISRLSIRKDNSKSQVFLKLNSLQTDDTATYYCAIGSPFAYWGQGTLVTVSA VL: DVLMTQTPLSLPVSLGDQVSISCRSSQNIVHSTGNTYLEWYLQKPGQSPKLLIFKVSNRLSGVPDRFSGSGSGTDFTLNISRVEAADLGIYSCFQGSHVPFTFGSGTKLEIK | -1.13 | 0 | 1.18 | 0.862 | 0.655 | 32 | 29 | 22 | 0.97 | 0.89 | 0.837 | –

More lines, main results first:

Normalized Barcode Count [1] | Raw Antigen Barcode Count [2] | Normalized Barcode Count [3] | Normalized Barcode Count [4] | Normalized Barcode Count [5] | Raw Antigen Barcode Count [6] | Raw Antigen Barcode Count [7] | Raw Antigen Barcode Count [8] | Antigen Score [9] | Antigen Score [10] | Antigen Score [11] | Binder | further results
-0.434 | 1 | – | – | – | – | – | – | – | – | – | Candidate ID 13 (antibody, V domains shown) VH: QAYLQQSGAELVRPGASVKMSCKASGYTFISYNMHWVKQTRRQGLEWIGAIYPGNGDTSYNQKFKGKATLTVDKSSSTAYMQLSSLTSEDSAVYFCARWDYYGSSYGAYWGQGTLVTVSA VL: DIQMTQSPASLSVSVGETVTITCRASENIYSNLAWYQQKQGKSPQLLVYAATNLADGVPSRFSGSGSGTQYSLKINSLQSEDFGSYYCQHFWGTPWTFGGGTKLEIK | –
0.826 | 4 | – | – | – | – | – | – | – | – | – | Candidate ID 21 (antibody, V domains shown) VH: QVQLQQSGPELVKPGASVKISCKAPGNAFSYSWMNWVKQRPGKGLEWVGRIYPGDGDTNYNGKFMGKATLTADKSSNTAYIQLSSLTSEDSAVYFCARSGGGTLYWYFDVWGTGTTVTVSS VL: DIVMTQSPSSLALSVGQKVTMNCRSSQSLLNSFNQKNYLAWFQQKPGQSPRLLIYFASTRESGVPDRFIGSGSGTDFTLTISSVQAEDLADYFCQQHYNTPLTFGAGTTLELK | –
0.603 | 3 | – | – | – | – | – | – | – | – | – | Candidate ID 16 (antibody, V domains shown) VH: EVHLQQSGPDLVKPGASVMISCQASGYSFTAYYINWVKQSPEKSLEWIGEINPGSGGVIYNRKFEAKATLIVDKSSNTAFMLLTRLTSEDSAIYYCARKGFYQFDYWGQGTTLTVSS VL: SVVMTQIPKFLVVSAGDRVTITCKASQSVNDGVFWYQQKTGQSPKLVIYHTSNRYTGVSDRFTGSGYGTEFTFTISAVQSEDLAIYFCQQDYTSPLTFGGGTRLEIK | –

From US20230349919A1
